# Experimental data: PMC4807051, “Determinants of Cofactor Specificity for the Glucose-6-Phosphate Dehydrogenase from Escherichia coli: Simulation, Kinetics and Evolutionary Studies” (PLoS ONE, 2016)
# What was measured:
# [1] = tested on: T1, NC(=O)c1ccc[n+]([C@@H]2O[C@H](COP(=O)(O)OP(=O)(O)OC[C@H]3O[C@@H](n4cnc5c(N)ncnc54)[C@H](OP(=O)(O)O)[C@@H]3O)[C@@H](O)[C@H]2O)c1; test: purified protein; type: biochemical, Escherichia coli; settings: 25°C, apparent
# T1 construct: full length; N-terminal 6xHis tag cut by TEV protease (Gly-His left before Met1); plasmid pET-TEV-EcG6PDH from pETG6PDH
# [2] = tested on: T2, NC(=O)c1ccc[n+]([C@@H]2O[C@H](COP(=O)(O)OP(=O)(O)OC[C@H]3O[C@@H](n4cnc5c(N)ncnc54)[C@H](O)[C@@H]3O)[C@@H](O)[C@H]2O)c1; test: purified protein; type: biochemical, Escherichia coli; settings: 25°C, apparent
# T2 construct: full length; N-terminal 6xHis tag cut by TEV protease (Gly-His left before Met1); plasmid pET-TEV-EcG6PDH from pETG6PDH
substance,measurement,setting,value
EcG6PDH; glucose-6-phosphate dehydrogenase from Escherichia coli (Escherichia coli K-12; K18A),Km,[1]; near-saturating G6P (40 mM),0.099 ± 0.003 mM
same,kcat,[1]; near-saturating G6P (40 mM),143 ± 1 s⁻¹
same,kcat/Km,[1]; near-saturating G6P (40 mM),1.4e+06 ± 40000 M⁻¹ s⁻¹
same,Km,[2]; near-saturating G6P (40 mM),2.477 ± 0.26 mM
same,kcat,[2]; near-saturating G6P (40 mM),109 ± 2 s⁻¹
same,kcat/Km,[2]; near-saturating G6P (40 mM),40000 ± 4000 M⁻¹ s⁻¹
EcG6PDH; glucose-6-phosphate dehydrogenase from Escherichia coli (Escherichia coli K-12; K18T),Km,[1]; near-saturating G6P (15 mM),0.243 ± 0.0053 mM
same,kcat,[1]; near-saturating G6P (15 mM),282 ± 1 s⁻¹
same,kcat/Km,[1]; near-saturating G6P (15 mM),1.1e+06 ± 30000 M⁻¹ s⁻¹
same,Km,[2]; near-saturating G6P (15 mM),8.352 ± 0.307 mM
same,kcat,[2]; near-saturating G6P (15 mM),298 ± 4 s⁻¹
same,kcat/Km,[2]; near-saturating G6P (15 mM),30000 ± 1000 M⁻¹ s⁻¹
EcG6PDH; glucose-6-phosphate dehydrogenase from Escherichia coli (Escherichia coli K-12; K18A/R50A),Km,[1]; near-saturating G6P (40 mM),17.696 ± 1.453 mM
same,kcat,[1]; near-saturating G6P (40 mM),185 ± 7 s⁻¹
same,kcat/Km,[1]; near-saturating G6P (40 mM),10000 ± 900 M⁻¹ s⁻¹
same,Km,[2]; near-saturating G6P (40 mM),11.736 ± 0.804 mM
same,kcat,[2]; near-saturating G6P (40 mM),165 ± 4 s⁻¹
same,kcat/Km,[2]; near-saturating G6P (40 mM),10000 ± 700 M⁻¹ s⁻¹
EcG6PDH; glucose-6-phosphate dehydrogenase from Escherichia coli (Escherichia coli K-12),Km,[1]; near-saturating G6P,0.0075 ± 0.0008 mM
same,kcat,[1]; near-saturating G6P,174 ± 2 s⁻¹
same,kcat/Km,[1]; near-saturating G6P,2.32e+07 ± 2.4e+06 M⁻¹ s⁻¹
same,Km,[2]; near-saturating G6P,5.09 ± 0.4 mM
same,kcat,[2]; near-saturating G6P,288 ± 5 s⁻¹
same,kcat/Km,[2]; near-saturating G6P,60000 ± 4000 M⁻¹ s⁻¹
EcG6PDH; glucose-6-phosphate dehydrogenase from Escherichia coli (Escherichia coli K-12; R50A),Km,[1]; near-saturating G6P (50 mM),0.382 ± 0.048 mM
same,kcat,[1]; near-saturating G6P (50 mM),189 ± 5 s⁻¹
same,kcat/Km,[1]; near-saturating G6P (50 mM),500000 ± 60000 M⁻¹ s⁻¹
same,Km,[2]; near-saturating G6P (50 mM),14.662 ± 2.176 mM
same,kcat,[2]; near-saturating G6P (50 mM),171 ± 10 s⁻¹
same,kcat/Km,[2]; near-saturating G6P (50 mM),10000 ± 1000 M⁻¹ s⁻¹
